The record followed here is article doi:10.1101/754457, “Architecture of the Mto1/2 microtubule nucleation complex” (bioRxiv, 2019).

Sequences and labels used below:
B1: 6xHis-TEV-Mto1[bonsai] (Mto1 residues 131-549) (domain or fragment, S. pombe, UniProt O94488 131-549, looked up)
chain: TTDDEQLSPVLTANQGFQSQEQYEEDSYNNYDYTSDPSSPNYISSSLDQLPHLDDEDDLQLTPIKEERNYLHSQDAPTTNALSKKISDILIPASAMKDLKDRKNALAKEFEESQPGSSLTLKEQANVIDNLRKEVFGLKLKCYFLYDQLNKFHDQEVQDIMKQNIDLKTLTMELQRAVAGYEKKISGLESRIKPDQSFNLSTPSPAPSNLITLQSRYSQALSELETTKRAFAALRKEKSKKTNYSVGAYNEDRNVLSNMLDNERREKEALLQELESLRVQLSKKVPMPAKNTDERVIETLQRSNELLRMDISMQNEALLLRKQENDRLVKQVEELTVALNSGKMNAIVEAESSKNELWDSMMVSRMKTQEQSIELTRLYKQLQDIEEDYENKLMRMEQQWREDVDQLQEYVEEITQELQ
notes: Mto1, S. pombe CM1 protein, residues 131-549 of full-length Mto1 (1115 residues); a TEV site lies between the 6xHis tag and Mto1; Dimeric by SEC-MALS; No TEV cleavage is described; also called 6xHis-tagged Mto1[bonsai]; source: Sf9 (MultiBac baculovirus), purified (nickel chelate, Superose 6 SEC); expressed alone or co-expressed with untagged Mto2; not shown: His6, N-terminal, kept

Series [1] deals with the molecule itself. The experiment in a line: SEC-MALS; Superose 6 10/300 for full-length proteins and complexes; injected at ∼4.5 mg/mL (Mto1/2[bonsai]), ∼1.3 mg/mL (Mto1[bonsai]), ∼1.6 mg/mL (Mto2), 1.4 mg/mL (Mto2-134A136A), 1.3 mg/mL (Mto2-134AAA). (Size exclusion chromatography separates by hydrodynamic size, large species first.)
Series [2] concerns the molecule itself. The experiment in a line: ITC; dilution series, 25°C, iTC200; 100 µM NND injected (20 x 2 µL) into 50 mM Tris-HCl pH 8.0, 150 mM NaCl, 2 mM EDTA; dimer dissociation model; dimer to monomers. For orientation: Isothermal titration calorimetry measures the heat released or taken up as one component is titrated into another.
Series [3] deals with the molecule itself. The experiment in a line: SEC-MALS; Superdex 75 10/300 for protein fragments; NND injected at ∼5 mg/mL (600 µM) and a dilution series, TCD at ∼10 mg/mL (1000 µM) and a dilution series.
Series [4] concerns the molecule itself. The experiment in a line: cross-linking; intermolecular disulfide between engineered cysteines; SDS-PAGE with and without β-mercaptoethanol.
Series [5] concerns the molecule itself. The experiment in a line: SEC; SEC-dilution analysis, Superose 6 10/300, 4°C, 100 µL loaded; undiluted ∼9 mg/mL (co-purified Mto1/2[bonsai]), ∼1.5 mg/mL (Mto1[bonsai]), ∼2.5 mg/mL (Mto2), and 10X dilution; fractions by SDS-PAGE and western blot.
The target of series [6] is B1. The description is as above. To be noted: both partners purified.
Series [7] concerns the molecule itself. The experiment in a line: cross-linking; EDC/Sulfo-NHS zero-length cross-linking with mass spectrometry (CLMS) of co-purified Mto1/2[bonsai] complex; phosphate pH 7.5, 300 mM NaCl, 5% glycerol, 2 h at 18°C.

For orientation: stoichiometry N means a count of units in the complex or per binding partner. B1: in series [1], the “stoichiometry N” value worked out at 2.

B2: Mto2 Near-N-terminal Domain (NND; Mto2 residues 78-153) (domain or fragment, S. pombe, UniProt Q9USP7 78-153, looked up)
chain: PLYSPSWPSLADANVNSMKSNNAIQEHKAAKFVSEKSLEKVSTADNNLVLQELENLRERLNQVELQLSERPSSYLG
notes: Mto2, S. pombe, residues 78-153 (NND); Weak homodimer that dissociates upon dilution; also called wild-type NND; source: E. coli BL21(DE3) pRIL, purified (glutathione-sepharose, TEV cleavage, SEC); not shown: GST, N-terminal, cleaved
As usually defined, the Kd is the constant that tells how readily two partners part at equilibrium. Low values mean higher affinity, high ones lower affinity. In series [2], B2 displayed a Kd of 15 µM. The “stoichiometry N” value in series [3] came out at 2.

B3: NND-R147C (domain or fragment, S. pombe, UniProt Q9USP7 78-153, looked up)
chain: PLYSPSWPSLADANVNSMKSNNAIQEHKAAKFVSEKSLEKVSTADNNLVLQELENLRERLNQVELQLSECPSSYLG
notes: Mto2, S. pombe, residues 78-153 (NND) with R147C; Disulfide-linked dimer under non-reducing conditions; source: E. coli BL21(DE3) pRIL, purified (glutathione-sepharose, TEV cleavage, SEC); not shown: GST, N-terminal, cleaved
Turning to B3, the binding result in series [4] is “binds”.

B4: NND-N123C (domain or fragment, S. pombe, UniProt Q9USP7 78-153, looked up)
chain: PLYSPSWPSLADANVNSMKSNNAIQEHKAAKFVSEKSLEKVSTADCNLVLQELENLRERLNQVELQLSERPSSYLG
notes: Mto2, S. pombe, residues 78-153 (NND) with N123C; Disulfide-linked dimer under non-reducing conditions; source: E. coli BL21(DE3) pRIL, purified (glutathione-sepharose, TEV cleavage, SEC); not shown: GST, N-terminal, cleaved
Regarding B4, in series [4], the binding result is given as “binds”.

B5: 6xHis-tagged Mto2 (natural protein, S. pombe, UniProt Q9USP7 1-397, looked up)
chain: MSEHNYQSDREVAEDPFLNYEASANQLSSNSRESTPRGSPWRAGMRSASLMTEPLEDSMYSDNNYLDNGVSFTKDENPLYSPSWPSLADANVNSMKSNNAIQEHKAAKFVSEKSLEKVSTADNNLVLQELENLRERLNQVELQLSERPSSYLGYHNNLSPYRSPNSYPSLLPSTHSPHSPAPLSTMQTALMRLRTYHPSPIILKPVEQAVNHAITLVNTSPSSVVDALCRSLAELCLGLVQEAIDASILSQQESSNSLDLVRHTPPLNYTSSVDSSPQRMASDSYGRPSLHLNDPFPSVDLQSNELSHHNVRTTLFSDDSRFHSKIHTHSTPPSQMYSAASHFRYRSDPSTRHVSNSTNKSSLHPSPTSLRVAHPIIPQRASPASQSFPSLQDTPSP
notes: Forms a range of multimers; Construct described in Leong et al., 2019; also called wild-type Mto2; 6xHis-Mto2; source: Sf9 (MultiBac baculovirus), purified (nickel chelate, Superose 6 SEC); also Sf9 co-infected with GST-Mto1[bonsai] virus, in lysate
With B5, the binding result in series [5] was “binds”.

B6: Mto2, untagged, co-expressed with 6xHis-Mto1[bonsai] (natural protein, S. pombe, UniProt Q9USP7 1-397, looked up)
chain: MSEHNYQSDREVAEDPFLNYEASANQLSSNSRESTPRGSPWRAGMRSASLMTEPLEDSMYSDNNYLDNGVSFTKDENPLYSPSWPSLADANVNSMKSNNAIQEHKAAKFVSEKSLEKVSTADNNLVLQELENLRERLNQVELQLSERPSSYLGYHNNLSPYRSPNSYPSLLPSTHSPHSPAPLSTMQTALMRLRTYHPSPIILKPVEQAVNHAITLVNTSPSSVVDALCRSLAELCLGLVQEAIDASILSQQESSNSLDLVRHTPPLNYTSSVDSSPQRMASDSYGRPSLHLNDPFPSVDLQSNELSHHNVRTTLFSDDSRFHSKIHTHSTPPSQMYSAASHFRYRSDPSTRHVSNSTNKSSLHPSPTSLRVAHPIIPQRASPASQSFPSLQDTPSP
notes: Mto2, S. pombe; for coexpression the tag was present only on Mto1[bonsai]; Construct described in Leong et al., 2019; also called Mto2 (of the Mto1/2[bonsai] complex); source: Sf9 (MultiBac baculovirus), co-expressed and co-purified with 6xHis-Mto1[bonsai]
In the case of B6, in series [6], the “stoichiometry N” value was ~1. Besides, the binding result in series [7] is reported as “binds”.

B7: Mto1/2[bonsai] complex (complex, S. pombe)
chain 1: TTDDEQLSPVLTANQGFQSQEQYEEDSYNNYDYTSDPSSPNYISSSLDQLPHLDDEDDLQLTPIKEERNYLHSQDAPTTNALSKKISDILIPASAMKDLKDRKNALAKEFEESQPGSSLTLKEQANVIDNLRKEVFGLKLKCYFLYDQLNKFHDQEVQDIMKQNIDLKTLTMELQRAVAGYEKKISGLESRIKPDQSFNLSTPSPAPSNLITLQSRYSQALSELETTKRAFAALRKEKSKKTNYSVGAYNEDRNVLSNMLDNERREKEALLQELESLRVQLSKKVPMPAKNTDERVIETLQRSNELLRMDISMQNEALLLRKQENDRLVKQVEELTVALNSGKMNAIVEAESSKNELWDSMMVSRMKTQEQSIELTRLYKQLQDIEEDYENKLMRMEQQWREDVDQLQEYVEEITQELQ
chain 2: MSEHNYQSDREVAEDPFLNYEASANQLSSNSRESTPRGSPWRAGMRSASLMTEPLEDSMYSDNNYLDNGVSFTKDENPLYSPSWPSLADANVNSMKSNNAIQEHKAAKFVSEKSLEKVSTADNNLVLQELENLRERLNQVELQLSERPSSYLGYHNNLSPYRSPNSYPSLLPSTHSPHSPAPLSTMQTALMRLRTYHPSPIILKPVEQAVNHAITLVNTSPSSVVDALCRSLAELCLGLVQEAIDASILSQQESSNSLDLVRHTPPLNYTSSVDSSPQRMASDSYGRPSLHLNDPFPSVDLQSNELSHHNVRTTLFSDDSRFHSKIHTHSTPPSQMYSAASHFRYRSDPSTRHVSNSTNKSSLHPSPTSLRVAHPIIPQRASPASQSFPSLQDTPSP
notes: Mto1, S. pombe, residues 131-549 of full-length Mto1 (Mto1[bonsai]); Mto2, S. pombe, untagged in the co-expression; Near-equal stoichiometry of the two chains; a range of multimer sizes, so no copy numbers; also called 6xHis-tagged Mto1/2[bonsai]; recombinant Mto1/2[bonsai]; source: Sf9 (MultiBac baculovirus), co-expressed, purified (nickel chelate, Superose 6 SEC); not shown: His6, N-terminal, …
Take B7: the binding result in series [1] was “binds”.

B8: Mto2 Twin-Cysteine Domain (TCD; Mto2 residues 180-265) (domain or fragment, S. pombe, UniProt Q9USP7 180-265, looked up)
chain: PAPLSTMQTALMRLRTYHPSPIILKPVEQAVNHAITLVNTSPSSVVDALCRSLAELCLGLVQEAIDASILSQQESSNSLDLVRHTP
notes: Mto2, S. pombe, residues 180-265 (TCD); Residues 180-250 (chain A) and 180-248 (chain B) are built in the structure; source: E. coli BL21(DE3) pRIL, purified (glutathione-sepharose, TEV cleavage, SEC); selenomethionine-labelled protein from B834(DE3); not shown: GST, N-terminal, cleaved
As for B8, the “stoichiometry N” value in series [3] came to 2.
